Legend:
[1] = target: T1, 메티오닐 티알엔에이 합성효소 (methionyl-tRNA synthetase, MRS) (human, UniProt P56192 1-900); test: SPR; MRS+AIMP3 co-purified protein on CM5 chip, antibody flowed at various concentrations
T1 construct: Full-length protein; In the cross-reactivity ELISA two preparations were coated (His-MRS, MRS full) and the result is told only for 'MRS'; In the western blots and cell staining it is the endogenous MRS of H460, PANC-1 and SCK cells; In SPR it was on the chip as MRS+AIMP3 co-purified protein; also called His-MRS; MRS full
T1 sequence: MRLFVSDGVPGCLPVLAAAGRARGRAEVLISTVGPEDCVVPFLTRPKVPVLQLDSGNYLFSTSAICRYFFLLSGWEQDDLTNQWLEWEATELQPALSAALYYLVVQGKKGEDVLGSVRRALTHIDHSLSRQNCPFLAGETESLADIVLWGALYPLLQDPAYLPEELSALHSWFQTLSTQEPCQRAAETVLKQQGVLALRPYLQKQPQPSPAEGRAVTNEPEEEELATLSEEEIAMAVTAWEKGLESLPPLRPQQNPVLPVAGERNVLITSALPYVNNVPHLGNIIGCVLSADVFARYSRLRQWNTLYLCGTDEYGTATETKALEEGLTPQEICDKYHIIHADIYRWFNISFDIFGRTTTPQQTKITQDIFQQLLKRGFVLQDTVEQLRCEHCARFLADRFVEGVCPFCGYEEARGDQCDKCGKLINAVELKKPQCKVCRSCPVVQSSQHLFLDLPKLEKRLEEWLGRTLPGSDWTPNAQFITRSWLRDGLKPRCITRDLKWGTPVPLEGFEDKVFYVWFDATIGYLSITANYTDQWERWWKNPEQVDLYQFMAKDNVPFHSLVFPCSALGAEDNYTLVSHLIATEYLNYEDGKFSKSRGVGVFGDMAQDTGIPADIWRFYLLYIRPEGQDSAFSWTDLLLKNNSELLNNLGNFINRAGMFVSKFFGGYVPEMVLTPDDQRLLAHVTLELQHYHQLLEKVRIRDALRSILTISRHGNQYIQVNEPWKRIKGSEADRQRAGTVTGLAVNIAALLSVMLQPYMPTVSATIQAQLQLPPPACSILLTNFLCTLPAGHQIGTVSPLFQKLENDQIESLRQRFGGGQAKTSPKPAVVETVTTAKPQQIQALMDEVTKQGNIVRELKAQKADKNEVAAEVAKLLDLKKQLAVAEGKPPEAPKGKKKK

[2] = target: T2, AIMP3 (Aminoacyl tRNA synthetase complex-interacting multifunctional protein 3) (Homo sapiens (Human), UniProt O43324 1-174, limits assumed); test: SPR; AIMP3 on CM5 chip, antibody flowed at various concentrations
T2 construct: also called AIMP3 단백질
T2 sequence: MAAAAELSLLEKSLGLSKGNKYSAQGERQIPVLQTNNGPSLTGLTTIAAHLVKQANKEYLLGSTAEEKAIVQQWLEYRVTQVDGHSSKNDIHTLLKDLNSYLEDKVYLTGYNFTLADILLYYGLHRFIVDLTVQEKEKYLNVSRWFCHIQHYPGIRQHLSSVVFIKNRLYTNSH

His-GRS = target: T3, His-GRS (UniProt P41250 55-739); test: ELISA; protein coated at 1 μg/ml, OD 450 nm
T3 construct: not shown: His tag
T3 sequence (looked up): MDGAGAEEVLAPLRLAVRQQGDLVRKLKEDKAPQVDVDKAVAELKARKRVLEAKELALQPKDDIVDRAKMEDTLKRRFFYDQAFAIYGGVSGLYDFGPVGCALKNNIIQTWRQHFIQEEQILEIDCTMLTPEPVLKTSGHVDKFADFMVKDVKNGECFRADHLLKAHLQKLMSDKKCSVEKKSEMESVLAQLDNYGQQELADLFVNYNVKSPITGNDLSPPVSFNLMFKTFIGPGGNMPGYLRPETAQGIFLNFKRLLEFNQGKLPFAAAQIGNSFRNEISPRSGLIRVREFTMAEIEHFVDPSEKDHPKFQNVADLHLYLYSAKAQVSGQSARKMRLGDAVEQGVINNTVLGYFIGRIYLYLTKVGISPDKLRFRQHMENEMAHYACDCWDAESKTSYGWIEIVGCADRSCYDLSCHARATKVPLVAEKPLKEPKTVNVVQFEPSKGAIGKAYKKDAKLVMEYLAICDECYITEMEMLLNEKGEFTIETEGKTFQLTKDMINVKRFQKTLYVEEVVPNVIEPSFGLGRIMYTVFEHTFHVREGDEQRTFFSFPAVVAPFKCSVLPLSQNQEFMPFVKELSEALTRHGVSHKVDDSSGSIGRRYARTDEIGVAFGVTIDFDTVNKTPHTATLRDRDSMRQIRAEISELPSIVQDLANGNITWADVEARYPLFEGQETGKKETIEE

His-AIMP1 = target: T4, His-AIMP1 (UniProt Q12904 1-312, limits assumed); test: ELISA; protein coated at 1 μg/ml, OD 450 nm
T4 construct: not shown: His tag
T4 sequence (looked up): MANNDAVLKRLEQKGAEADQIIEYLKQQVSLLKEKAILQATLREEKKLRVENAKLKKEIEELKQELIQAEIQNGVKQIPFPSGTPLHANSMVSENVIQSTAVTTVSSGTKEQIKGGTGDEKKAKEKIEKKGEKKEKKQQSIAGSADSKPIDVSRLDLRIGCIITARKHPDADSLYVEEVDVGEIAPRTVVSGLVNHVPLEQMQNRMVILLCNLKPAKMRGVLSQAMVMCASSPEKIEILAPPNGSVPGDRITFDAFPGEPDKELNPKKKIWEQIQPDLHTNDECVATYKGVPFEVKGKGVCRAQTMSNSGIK

His-KRS = target: T5, His-KRS (UniProt Q15046 1-597); test: ELISA; protein coated at 1 μg/ml, OD 450 nm
T5 construct: not shown: His tag
T5 sequence (Q15046 whole entry): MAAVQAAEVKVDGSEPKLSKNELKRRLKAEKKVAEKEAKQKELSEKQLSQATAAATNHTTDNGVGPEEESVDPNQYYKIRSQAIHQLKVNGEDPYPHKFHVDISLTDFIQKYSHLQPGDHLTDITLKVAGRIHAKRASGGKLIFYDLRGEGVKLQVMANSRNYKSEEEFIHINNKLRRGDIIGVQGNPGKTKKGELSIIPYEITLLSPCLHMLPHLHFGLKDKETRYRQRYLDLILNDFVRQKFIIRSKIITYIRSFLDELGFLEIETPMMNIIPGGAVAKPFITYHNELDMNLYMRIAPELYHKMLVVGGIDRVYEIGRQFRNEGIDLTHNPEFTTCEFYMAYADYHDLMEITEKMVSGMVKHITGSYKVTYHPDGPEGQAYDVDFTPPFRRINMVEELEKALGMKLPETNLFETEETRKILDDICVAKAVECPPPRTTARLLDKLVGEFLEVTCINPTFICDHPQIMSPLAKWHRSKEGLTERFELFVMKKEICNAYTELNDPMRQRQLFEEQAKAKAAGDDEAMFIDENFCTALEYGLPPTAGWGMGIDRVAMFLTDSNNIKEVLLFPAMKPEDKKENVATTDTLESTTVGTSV

His-WRS = target: T6, His-WRS (UniProt P23381 1-471, limits assumed); test: ELISA; protein coated at 1 μg/ml, OD 450 nm
T6 construct: not shown: His tag
T6 sequence (looked up): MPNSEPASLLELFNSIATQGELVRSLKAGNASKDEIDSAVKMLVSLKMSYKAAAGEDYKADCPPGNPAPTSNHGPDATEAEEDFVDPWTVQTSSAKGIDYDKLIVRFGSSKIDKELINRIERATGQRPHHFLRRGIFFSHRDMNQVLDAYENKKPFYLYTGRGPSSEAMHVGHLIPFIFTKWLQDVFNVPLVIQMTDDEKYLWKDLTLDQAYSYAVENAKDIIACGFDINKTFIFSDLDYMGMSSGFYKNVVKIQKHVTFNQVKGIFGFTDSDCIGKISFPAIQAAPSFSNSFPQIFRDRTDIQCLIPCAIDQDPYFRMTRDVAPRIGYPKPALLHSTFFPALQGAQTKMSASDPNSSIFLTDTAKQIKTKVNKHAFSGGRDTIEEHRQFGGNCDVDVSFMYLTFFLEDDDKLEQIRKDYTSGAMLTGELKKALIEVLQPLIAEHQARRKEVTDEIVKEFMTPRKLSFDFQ

34S-AIMP2 = target: T7, 34S-AIMP2 (UniProt Q13155 1-320); test: ELISA; protein coated at 1 μg/ml, OD 450 nm
T7 sequence (looked up): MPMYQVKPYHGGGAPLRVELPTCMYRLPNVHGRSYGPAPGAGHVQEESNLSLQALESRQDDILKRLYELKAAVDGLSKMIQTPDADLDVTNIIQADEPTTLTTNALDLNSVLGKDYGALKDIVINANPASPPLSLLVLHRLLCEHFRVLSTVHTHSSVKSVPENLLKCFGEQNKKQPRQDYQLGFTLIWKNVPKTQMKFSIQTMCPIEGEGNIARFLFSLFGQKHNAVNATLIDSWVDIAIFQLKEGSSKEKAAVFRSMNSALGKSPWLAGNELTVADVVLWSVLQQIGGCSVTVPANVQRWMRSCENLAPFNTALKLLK

His-CRS = target: T8, His-CRS (UniProt P49589 1-748); test: ELISA; protein coated at 1 μg/ml, OD 450 nm
T8 construct: not shown: His tag
T8 sequence (looked up): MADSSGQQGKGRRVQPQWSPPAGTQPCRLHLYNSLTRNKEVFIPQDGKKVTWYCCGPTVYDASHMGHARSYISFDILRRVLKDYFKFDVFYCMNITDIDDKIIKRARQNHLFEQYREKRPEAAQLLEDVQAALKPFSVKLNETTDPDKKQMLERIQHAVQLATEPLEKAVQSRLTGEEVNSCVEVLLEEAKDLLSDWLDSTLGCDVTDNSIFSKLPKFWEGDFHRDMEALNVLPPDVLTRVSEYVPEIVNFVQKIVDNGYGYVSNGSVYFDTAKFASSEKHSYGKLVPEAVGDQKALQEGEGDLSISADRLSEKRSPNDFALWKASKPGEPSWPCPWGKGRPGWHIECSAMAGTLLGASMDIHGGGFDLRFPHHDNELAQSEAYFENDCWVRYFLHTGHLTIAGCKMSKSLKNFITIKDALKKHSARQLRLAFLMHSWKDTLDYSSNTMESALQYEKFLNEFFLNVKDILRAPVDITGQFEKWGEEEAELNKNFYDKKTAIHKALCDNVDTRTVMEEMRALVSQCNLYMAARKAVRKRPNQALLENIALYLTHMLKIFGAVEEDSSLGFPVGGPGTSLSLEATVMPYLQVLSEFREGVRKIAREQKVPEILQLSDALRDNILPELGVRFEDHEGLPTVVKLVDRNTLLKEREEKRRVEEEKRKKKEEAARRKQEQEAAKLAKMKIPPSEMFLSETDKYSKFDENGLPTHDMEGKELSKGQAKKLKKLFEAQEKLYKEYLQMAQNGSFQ

B1: 1E8 항체 (anti-MRS monoclonal antibody 1E8) (antibody, mouse IgG2a, kappa, V domains shown)
VH: DVKLQESGPGLVNPSQSLSLTCTVTGYSITSDYAWNWIRQFPGNKLEWMGYISYSGRTSYKSSLKSRISITRDTSKNQFFLELNSVTTEDTATYYCARDYGNFVGYFDVWGAGTTVTVSS
VL: DIVMTQSPSSLAVSVGEKVTMSCKSSQSLLYSSNQKNYLAWYQQKPGQSPKLLIYWASTRESGVPDRFTGSGSGTEFTLTISSVKAEDLAVYYCQQYYSYPTFGGGTKLEIKA
notes: Mouse monoclonal from hybridoma 1E8 (immunogen MRS-AIMP3 co-purified protein); also called 1E8 IgG; 1E8 antibody
In the case of B1, the Kd [1] is reported as 5.42 nM, the binding result [2] is reported as “no binding” and the binding result (His-GRS) is reported as “no binding (tested: 500 ng/ml)”. B1: no binding (tested: 500 ng/ml) (His-AIMP1); no binding (tested: 500 ng/ml) (His-KRS); no binding (tested: 500 ng/ml) (His-WRS). B1: no binding (tested: 500 ng/ml) (34S-AIMP2); no binding (tested: 500 ng/ml) (His-CRS).

B2: 8A12 항체 (anti-MRS monoclonal antibody 8A12) (antibody, mouse IgG2a, kappa, V domains shown)
VH: DVKLQESGPGLVKPSQSLSLTCTVTGYSITSEYAWTWIRQFPGNKLEWMGYINYNGNTNLNPSLKSRISIIRDTSKNQFFLQLNSVTTEDTATYYCARSLWPRGWFAYWGQGTLVTVSA
VL: DIQMTQSPSSMYASLGERVTITCKASQDINSYLSWFQQKPGKSPKTLMYRANRLVDGVPSRFSGSGSGQDYSLTISSLEYEDMGIYYCLQYDEFPRTFGGGTKLEIKA
notes: Mouse monoclonal from hybridoma 8A12 (also named 34-8F2); also called 8A12 IgG; 8A12 antibody
For B2, the Kd [1] was 1.56 nM, the binding result [2] was “no binding” and the binding result (His-GRS) was “no binding (tested: 500 ng/ml)”. B2: no binding (tested: 500 ng/ml) (His-AIMP1); no binding (tested: 500 ng/ml) (His-KRS); no binding (tested: 500 ng/ml) (His-WRS). B2: no binding (tested: 500 ng/ml) (34S-AIMP2); no binding (tested: 500 ng/ml) (His-CRS).
